# Results: publication PMC4419654, “LSD1 and HY5 antagonistically regulate red light induced-programmed cell death in Arabidopsis” (Frontiers in Plant Science, 2015)
# B1: lesion simulating disease 1 (LSD1) (natural protein, UniProt P94077 1-189, looked up)
# chain: MKVADMQDQLVCHGCRNLLMYPRGASNVRCALCNTINMVPPPPPPHDMAHIICGGCRTMLMYTRGASSVRCSCCQTTNLVPAHSNQVAHAPSSQVAQINCGHCRTTLMYPYGASSVKCAVCQFVTNVNMSNGRVPLPTNRPNGTACPPSTSTSTPPSQTQTVVVENPMSVDESGKLVSNVVVGVTTDKK
# notes: lesion simulating disease 1 (LSD1), C2C2 zinc finger protein with three zinc finger domains, Arabidopsis; detected with LSD1 antibody (Agrisera); source: endogenous, Arabidopsis WT plant total protein extract
# Target: the molecule itself
# Test: immunoblot of plant extract made without DTT; total protein of RL-treated WT plants extracted without DTT; the legend calls it an immunoprecipitation analysis; dimer and monomer LSD1 detected
protein,measurement,value
B1,stoichiometry N,2
